From patent US20240350583A1, “COMPOSITION FOR PREVENTING OR TREATING FIBROTIC DISEASES, COMPRISING HAPLN1” (Chung Ang University Industry Academic Cooperation …, priority 2021, published 2024)

Experiments:
Type in all cases: cell-based
[1] = tested on: normal human dermal fibroblast (NHDF); assay: TGFβ1-induced fibrosis of human dermal fibroblasts, αSMA western blot
Procedure: (1) Human dermal fibroblasts (normal human dermal fibroblast, NHDF) were seeded (1.0×10^5 cells/well) in a 6-well plate and incubated in FBM-2 (fibroblast growth medium-2, CC-3131, Lonza) medium for 24 hours in an incubator at 37° C. 5% CO2.
(2) After replacing with serum-free medium, the medium was incubated for 24 hours.
(3) In this regard, under conditions in which fibrosis was induced by treatment with TGFβ1 (10 ng/ml), each well of the plate was treated with the composition of the present disclosure based on Preparation Example 2 but with rhHAPLN1 protein content of 0, 3, 10, 30, and 100 ng/ml and 100 μg/mL and 200 μg/mL of pirfenidone (Selleckchem), a commercially available anti-fibrotic agent, respectively, and incubated for 24 hours.
(4) Afterwards, each sample was washed twice with phosphate buffered saline (PBS, pH 7.2), and then the expression level of αSMA, a marker for myofibroblasts, was confirmed by western blot.

[2] = tested on: renal proximal tubule epithelial cell (RPTEC); assay: Age-induced fibrosis of RPTEC (passage 11), αSMA immunofluorescence; conditions: aged cells (11th passage culture), 72 hours
Procedure: (1) Renal proximal tubule epithelial cell ([…]) in 12-well plates and cultured in complete renal epithelial cell medium (ATCC PCS-400-030+ATCC PCS-400-040) in an incubator at 37° C. 5% CO2 for 24 hours.
(2) Subsequently, the plates were then treated with the composition of the present disclosure (rhHAPLN1 protein content of 0, 10, 20, 50 and 100 ng/ml) and pirfenidone 0.2 mg/mL (200 μg/mL), respectively, and cultured for 72 hours.
(3) Afterwards, each well was washed twice with PBS, then treated with 4% paraformaldehyde and fixed for 1 hour.
(4) After washing four times with 1×PBS, the wells were treated with 1×PBST (1×PBS+0.1% Triton X-100) containing 1% BSA and blocked for 2 hours.
(5) Primary antibody against αSMA (Abcam ab7817) was diluted 1:200 in 1×PBSTdp and treated and incubated overnight at 4° C.
(6) The next day, the blot was washed four times with 1×PBST.
(7) After treatment with secondary antibody (anti-mouse IgG Alexa Fluor™ 488 1:500 (Invitrogen, A28175)) and DAPI 1:2000 (Invitrogen, D1306), the cells were incubated at room temperature for 1 hour.
(8) Afterwards, 50 ul of Vectashield (Vectorlabs, H-1000) was added, covered with a coverslip, and photographed with a fluorescence microscope.

[3] = tested on: human cardiac microvascular endothelial cell (HCMEC); assay: TGFβ1-induced fibrosis of human cardiac microvascular endothelial cells, αSMA western blot
Procedure: (1) Primary human cardiac microvascular endothelial cell (HCMEC; ScienCell, #6000) were seeded (5.7×10^4 cells/well) in a 6-well plate according to the experimental scheme of FIG. 4A and incubated in Endothelial cell medium (ScienCell) for 24 hours in an incubator at 37° C. 5% CO2.
(2) The plates were then treated with TGFβ1 (5 ng/ml) to induce fibrosis and incubated for 3 days.
(3) Afterwards, each well of the plate was then treated with the composition of the present disclosure at rhHAPLN1 protein content of 0, 3, 10, 30, and 100 ng/ml and pirfenidone 100 μg/mL and 200 μg/mL, respectively, and incubated for 3 days.
(4) Each sample was then treated with cell lysis buffer and harvested.
(5) Western blotting was performed on the samples. Here, anti-αSMA Ab (Abcam, ab7817), anti-GAPDH Ab (Santa Cruz, sc-32233) were used as primary antibodies and HRP-conjugated anti-mouse IgG Ab (CST, #7076) as secondary antibodies to confirm the protein expression levels of αSMA and GAPDH.

Molecule | expression level of αSMA at 200 μg/mL versus 100 μg/mL ([1]; pirfenidone 200 μg/mL, TGFβ1 10 ng/ml) | optimal anti-fibrotic concentration (assumed) ([1]; αSMA, TGFβ1 10 ng/ml) [µg/mL] | αSMA stained fluorescent areas (FIG. 10B) ([2]; pirfenidone 0.2 mg/ml) | expression level of αSMA compared to composition that does not include rhHAPLN1 protein ([3]; pirfenidone 100 and 200 μg/mL) | expression level of αSMA compared to composition that does not include rhHAPLN1 protein (FIG. 1B) ([1]; TGFβ1 10 ng/ml, all rhHAPLN1 contents 3, 10, 30, 100 ng/ml, 24 hours) | anti-fibrotic action from αSMA western blot band, compared to pirfenidone (FIG. 1A) ([1]; TGFβ1 10 ng/ml, pirfenidone 100 and 200 μg/mL) | rhHAPLN1 protein content showing the most excellent anti-fibrotic efficacy ([1]; TGFβ1 10 ng/ml, αSMA) [ng/mL] | anti-fibrotic efficacy higher than pirfenidone at 100 μg/mL ([1]; rhHAPLN1 100 ng/ml, αSMA) [%] | αSMA stained fluorescent areas compared to composition without rhHAPLN1 (FIG. 10B) ([2]; rhHAPLN1 50 ng/ml and 100 ng/ml) | expression level of αSMA compared to composition that does not include rhHAPLN1 protein (FIG. 4C) ([3]; TGFβ1 5 ng/ml 3 days, then rhHAPLN1 3, 10, 30, 100 ng/ml 3 days) | anti-fibrotic action from αSMA western blot band, compared to pirfenidone (FIG. 4B) ([3]; all rhHAPLN1 contents, pirfenidone 100 and 200 μg/mL) | rhHAPLN1 protein content showing the most excellent anti-fibrotic efficacy ([3]; αSMA) [ng/mL]
Cc1ccc(=O)n(-c2ccccc2)c1 [pirfenidone, reference compound] | higher expression level of αSMA than 100 μg/mL | 100 | fewer stained fluorescent areas appeared | higher than when treated with a composition that does not include rhHAPLN1 protein | – | – | – | – | – | – | – | –
rhHAPLN1: recombinant human HAPLN1 protein of SEQ ID NO: 1 produced in CHO-K1 cells, stabilized in acetic acid buffer, sucrose, PS80, pH 5.0 (protein, listed as Homo sapiens) MKSLLLLVLISICWADHLSDNYTLDHDRAIHIQAENGPHLLVEAEQAKVFSHRGGNVTLPCKFYRDPTAFGSGIHKIRIKWTKLTSDYLKEVDVFVSMGYHKKTYGGYQGRVFLKGGSDSDASLVITDLTLEDYGRYKCEVIEGLEDDTVVVALDLQGVVFPYFPRLGRYNLNFHEAQQACLDQDAVIASFDQLYDAWRGGLDWCNAGWLSDGSVQYPITKPREPCGGQNTVPGVRNYGFWDKDKSRYDVFCFTSNFNGRFYYLIHPTKLTYDEAVQACLNDGAQIAKVGQIFAAWKILGYDRCDAGWLADGSVRYPISRPRRRCSPTEAAVRFVGFPDKKHKLYGVYCFRAYN | – | – | – | – | significantly lower | much better anti-fibrotic action than pirfenidone | 100 | 25 | fewer stained fluorescent areas appeared | significantly lower | much better anti-fibrotic action compared to pirfenidone | 3
